Here are results for one molecule from patent US12024544B2, “CCN3 and CCN3 peptides and analogs thereof for therapeutic use” (Rosalind Franklin University of Medicine & Science, priority 2010, dated 2024).

One assay deals with CCN2 receptor. Briefly: adhesion of mesangial cells to CCN2 coated plates. The format is cell-based, rat. The conditions noted are these: 27 nM, rodent mesangial cells. The text has this:
The peptides selected above, and shown in FIG. 5, were synthesized and tested in the three different in vitro assays constructed to model fibrosis, or fibrosis-related pathology in vivo for anti-fibrotic activity. These assays have been used extensively by us and by others, and are highly predictive of related responses in vivo, including those occurring in humans. One in vitro assay, i.e., of cell adhesion in vitro was used. There is a requirement for adhesion in wound healing and fibrosis, with cells responding to the binding of CCN2 to their receptors for other critical activities. Also alteration of cell attachment and receptor binding is implicated in other non-fibrotic diseases, previously named in this application. For this adhesion assay, a well of a culture plate was coated with CCN2 protein and then rat mesangial cells were added for a defined period. […] After a standard period of incubation, the cells are washed to remove non-attached cells. These adherent cells are then removed and counted to determine the percent of the total cells that adhered. The ability of each peptide to block this binding was examined by preincubating cells with the peptide of interest. Controls were used for comparison without CCN2 coating.

The subject of the next assay is human skin fibroblasts. As to the kind of experiment: human skin fibroblast proliferation. It counts as cell-based. The text has this:
(§1) To test this we used a cell culture model of skin healing/scarring, which employed the use of primary human skin fibroblasts derived from foreskins collected post circumcision. These have been used extensively in the past to grown in culture and treated with agents that are known to drive wound healing and or scarring. We were also interested in a rare form of skin fibrosis/scarring that can lead to systemic disease and death known as nephrogenic systemic fibrosis (NSF). NSF is a complication of NMR diagnostics in renal impaired patients, where gadolinium (GAD), a heavy metal, is used as a contrast agent, but in some cases appears to deposit in skin. Although the mechanism for development of skin fibrosis and subsequent systemic disease is not yet completely understood, we have developed a model that has allowed elucidation of the probable pathway to skin fibrosis (Bhagavathula, N., M. K. Dame, M. DaSilva, W. Jenkins, M. N. Aslam, P. Perone and J. Varani (2010)). “Fibroblast response to gadolinium: role for platelet-derived growth factor receptor.” Invest Radiol 45(12): 769-777). This disease is characterized as a hyperproliferative disease, and in our model it was shown that PDGF produced by resident skin fibroblasts are stimulated by GAD to increase their production of PDGF which acts to induce proliferation and the increased production of MMPs, regulators of ECM breakdown and thus turnover, including the major MMP, MMP-1. At the same time tissue inhibitors of MMPs (TIMPs) are also affected by exposure to GAD. […] It appears that local fibroblasts then respond to this increased TGF-beta by increasing their production of ECM, including predominantly collagen type 1.
(§2) We examined the role of CCN3 and CCNp in fibroproliferative/fibrotic responses in human dermal fibroblasts exposed to Omniscan, one of the gadolinium-based contrast agents associated with development of nephrogenic systemic fibrosis. These studies were carried out as we have previously described (Riser, B. L., N. Bhagavathula, P. Perone, K. Garchow, Y. Xu, G. J. Fisher, F. Najmabadi, D. Attili and J. Varani (2012)). “Gadolinium-induced fibrosis is counter-regulated by CCN3 in human dermal fibroblasts: a model for potential treatment of nephrogenic systemic fibrosis.” J Cell Commun Signal 6(2): 97-105.). In our studies, human dermal fibroblasts were exposed to Omniscan; or to PDGF and TGF-β1 as controls. Cellular proliferation was assessed along with MMP-1 (by ELISA and gelatin zymography), TIMP-1 (by ELISA) and COL1 (by ELISA) in the absence and presence of CCN3 and CCNp. CCN3 and CCNp38 was added to cells at 10 nM concentration and at the same time as PDGF. In parallel, CCN3 production was assessed in control and Omniscan-treated cells. In most case the results shown (each bar) are the mean of 3-5 separate experiments, using fibroblasts from different donors. CCN3 was produced in our laboratory from the human embryonic kidney cell line (HEK-293) transfected with the complete human CCN3 gene, and producing an approximate 55 kDa, full-length CCN3 product. A second source of CCN3 was obtained from Pepro Tech Corporation (Rocky Hill, NJ) and is produced in a prokaryote cell line.
(§3) Next we created and tested for efficacy, additional CCNp including those with the cysteines intact (native sequence) from CCNp37 and CCNp38 and those that were modified by either shortening the peptide by 1 or 2 amino acids or lengthening by one amino acid. These agents were added to human skin fibroblasts in increasing concentrations from 1 nM to 100 nM and compared to the equal concentration of CCN3 (SEQ. ID. NO: 67). They were added just prior to the addition of either TGF-beta or PDGF, depending on the experiment.

Another assay has as its system MMP-1. Briefly: MMP-1 production by human skin fibroblasts. It counts as cell-based.
Text: as §1, §2, §3

Another assay deals with TIMP-1. Briefly: TIMP-1 production by human skin fibroblasts. The format is cell-based.
Text: as §1, §2
Next we created and tested for efficacy, additional CCNp including those with the cysteines intact (native sequence) from CCNp37 and CCNp38 and those that were modified by either shortening the peptide by 1 or 2 amino acids or lengthening by one amino acid. […]

For another assay, the system named is BTBR Ob/Ob mouse. As to the kind of experiment: BTBR Ob/Ob mouse as model of liver disease. It counts as in vivo. Conditions: 8 weeks of treatment. The protocol: This was carried out using the BTBR Ob/Ob mouse strain that has a defective leptin receptor that results in increased appetite. As a result it rapidly gains weight over the control strain and becomes hyperglycemic at about one month of age, going on to develop renal disease resembling that in humans. This is regarded by some to be the rodent model best mirroring renal disease in humans as a complication of diabetes. Animals were treated with either rCCN3 (SEQ. ID. NO: 67) or CCNp38 (SEQ. ID. NO: 38) beginning at 9 weeks of age, when early renal disease has been documented. The disease was allowed to develop for 9 weeks, then treatment started. Mice were treated 3 times per week for 8 weeks. At 17 weeks, blood and urine were collected, and animals sacrificed with organ samples collected. The effect of treatment with either CCN3 (2 concentrations, 2 or 20× the circulating amounts) or mimic peptide (CCNp38, 2 concentrations, 20 or 200× the equivalent molar circulating concentration of CCN3) was tested. Assays to determine the effect of CCN3 or peptide on expression of target fibrosis genes and clinical pathology were determined using methods as previously described (Riser, Amer J Pathology 2009) and (McIntosh, L M, et al., Selective CCR2-targeted macrophage depletion ameliorates experimental mesangioproliferative glomerulonephritis, Clinical and Experimental Immunology, 2008, 155, 295-303).
Since a common complication of diabetes is fatty liver, hepatitis, NASH, and in some cases liver fibrosis, we used the BTBR Ob/Ob mouse experiments described above as a model of human liver disease to examine the possibility that CCN3 or more particularly CCNp peptides might provide a treatment to prevent, treat, or reverse the liver disease described above.

Entries after “also recorded” stand apart in the source; their conditions may differ.

B1: CCN3: full-length recombinant human CCN3 protein (SEQ. ID. No. 67), commercial (Pepro Tech) or made in HEK-293 (protein)
chain: MQVAATQRCPPQCPGRCPATPPTCAPGVRAVLDGCSCCLVCARQRGESCSDLEPCDESSGLYCDRSADPSNQTGICTAVEGDNCVFDGVIYRSGEKFQPSCKFQCTCRDGQIGCVPRCQLDVLLPEPNCPAPRKVEVPGECCEKWICGPDEEDSLGGLTLAAYRPEATLGVEVSDSSVNCIEQTTEWTACSKSCGMGFSTRVTNRNRQCEMLKQTRLCMVRPCEQEPEQPTDKKGKKCLRTKKSLKAIHLQFKNCTSLHTYKPRFCGVCSDGRCCTPHNTKTIQAEFQCSPGQIVKKPVMVIGTCTCHTNCPKNNEAFLQELELKTTRGKM
With B1, in the assay on CCN2 receptor, the “inhibition of cellular adhesion to CCN2 coated plates” value is “some inhibition”. In the assay with human skin fibroblasts (1 nM to 100 nM, FIGS. 22-24), the “inhibition of PDGF-stimulated proliferation, comparison of modifications” value is reported as “dose-dependent efficacy”. The “reduction in PDGF-stimulated proliferation” value is listed as “slightly decreased proliferation” with human skin fibroblasts (1 nM, FIG. 22); 33% in the assay with human skin fibroblasts (10 nM, FIG. 23); 46% in the assay with human skin fibroblasts (100 nM, FIG. 24). The “block of PDGF-stimulated fibroblast proliferation” value in the assay on human skin fibroblasts (PDGF, 10 nM, FIG. 15) was “this stimulation is blocked”. In the assay on human skin fibroblasts (TGF-beta (does not stimulate proliferation), FIG. 16), the “effect on baseline cell growth” value was “neither CCN3 (SEQ. ID. No. 67) nor CCNp38-3 (Seq. ID. No. 56) has an effect on baseline cell growth”. Further, in the assay on MMP-1 (1 nM, FIG. 25), the “block of PDGF stimulated MMP-1 production” value is on record as “able to block little or no MMP-1 production”. Further, the “reduction in PDGF stimulated MMP-1 production” value in the assay on MMP-1 (10 nM, FIG. 26) was determined as 27%; with MMP-1 (100 nM, FIG. 27), 30%. The “block of PDGF-induced increase in MMP-1 activity” value in the assay on MMP-1 (PDGF, 10 nM, FIG. 17) is “able to block that increase”. For the same molecule, in the assay on MMP-1 (TGF-beta (no stimulating effect), FIG. 18), the “effect on MMP-1 with TGF-beta” value is reported as “no effect”. Further, the “block of PDGF stimulated TIMP-1 production” value with TIMP-1 (FIGS. 28-30) is on record as “unable to block the increase in TIMP-1”. Further, the “block of PDGF-induced increase in TIMP-1 production” value in the assay on TIMP-1 (PDGF, 10 nM, FIG. 19) was “neither CCNp38-3 (Seq. ID. No. 56) nor CCN3 (SEQ. ID. No. 67) is able to block or reduce the increase in TIMP-1 production”. Moreover, in the assay on TIMP-1 (TGF-beta (fails to stimulate), FIG. 20), the “effect on TIMP-1 production with TGF-beta” value is listed as “neither CCNp38-3 nor CCN3 have an effect; also recorded: neither CCNp38-3 or CCN3 have an effect”. Also, in the assay on BTBR Ob/Ob mouse (FIG. 41), the “effect on increased liver weight” value is given as “slightly reduces this increase”. Moreover, the “effect on increased liver mRNA levels for CCN2” value with BTBR Ob/Ob mouse (liver, two doses, FIG. 42) is reported as “greatly reduces or blocks the increase in a dose-dependent manner”. Also, in the assay with BTBR Ob/Ob mouse (liver, two doses, FIG. 43), the “effect on increased liver mRNA levels for Col1A2” value is “dose-dependently reduced, or blocked the increase in collagen expression; also recorded: reduced”.
